Holding throughout (experiment): SPR, mAb captured, C2 mutant analyte;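 also: Anti-C2 mAbs captured on goat anti-human IgG Biacore CM5 chips, alanine or serine C2 surface mutants flowed over at 37 °C, double-referenced sensorgrams fitted to a 1:1 binding model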
(In general: In SPR one partner is held on a chip, and binding of the other changes the refractive index at the surface.)

The target of test [1] is T1, human C2 A436S (human, UniProt P06681 21-752).
T1 sequence: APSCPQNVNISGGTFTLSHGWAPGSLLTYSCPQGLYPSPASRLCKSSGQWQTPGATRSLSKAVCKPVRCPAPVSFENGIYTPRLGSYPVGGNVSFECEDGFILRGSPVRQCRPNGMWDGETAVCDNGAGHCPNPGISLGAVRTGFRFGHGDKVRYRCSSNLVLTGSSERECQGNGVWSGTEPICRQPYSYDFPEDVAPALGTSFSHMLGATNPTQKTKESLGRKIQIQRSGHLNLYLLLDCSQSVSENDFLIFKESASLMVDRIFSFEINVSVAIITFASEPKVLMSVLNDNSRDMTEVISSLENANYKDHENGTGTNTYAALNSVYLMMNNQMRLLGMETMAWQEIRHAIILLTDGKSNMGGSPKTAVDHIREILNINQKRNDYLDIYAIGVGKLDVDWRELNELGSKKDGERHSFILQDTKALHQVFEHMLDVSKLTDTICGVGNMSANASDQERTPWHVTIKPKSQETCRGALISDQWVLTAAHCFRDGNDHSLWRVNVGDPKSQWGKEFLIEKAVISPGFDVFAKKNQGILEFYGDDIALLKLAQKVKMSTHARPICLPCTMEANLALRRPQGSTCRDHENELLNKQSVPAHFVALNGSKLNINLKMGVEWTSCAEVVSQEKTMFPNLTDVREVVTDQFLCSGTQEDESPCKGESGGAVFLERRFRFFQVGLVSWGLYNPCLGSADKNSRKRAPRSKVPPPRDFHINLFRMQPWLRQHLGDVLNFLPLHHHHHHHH

The target in test [2] is T2, human C2 F689A (human, UniProt P06681 21-752).
T2 sequence: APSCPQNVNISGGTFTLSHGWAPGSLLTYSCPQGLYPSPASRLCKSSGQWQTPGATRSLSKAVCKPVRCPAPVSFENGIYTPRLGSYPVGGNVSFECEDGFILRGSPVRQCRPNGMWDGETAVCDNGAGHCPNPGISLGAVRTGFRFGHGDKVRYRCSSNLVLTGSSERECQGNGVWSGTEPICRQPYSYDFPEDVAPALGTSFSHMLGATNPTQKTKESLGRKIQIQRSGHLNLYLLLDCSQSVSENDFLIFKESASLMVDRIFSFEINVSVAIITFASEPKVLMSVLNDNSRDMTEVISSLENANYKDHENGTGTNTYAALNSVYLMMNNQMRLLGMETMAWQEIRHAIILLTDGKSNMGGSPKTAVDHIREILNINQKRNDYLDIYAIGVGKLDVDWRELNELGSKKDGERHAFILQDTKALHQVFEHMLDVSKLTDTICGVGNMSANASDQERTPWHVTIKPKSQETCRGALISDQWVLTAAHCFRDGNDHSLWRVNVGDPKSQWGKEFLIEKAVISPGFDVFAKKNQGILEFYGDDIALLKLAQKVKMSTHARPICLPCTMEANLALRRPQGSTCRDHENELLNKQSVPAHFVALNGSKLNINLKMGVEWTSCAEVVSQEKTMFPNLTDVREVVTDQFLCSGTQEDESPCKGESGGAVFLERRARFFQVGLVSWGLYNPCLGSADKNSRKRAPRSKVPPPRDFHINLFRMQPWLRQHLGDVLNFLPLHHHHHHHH

In test [3] the target is T3, human C2 E267A (human, UniProt P06681 21-752).
T3 sequence: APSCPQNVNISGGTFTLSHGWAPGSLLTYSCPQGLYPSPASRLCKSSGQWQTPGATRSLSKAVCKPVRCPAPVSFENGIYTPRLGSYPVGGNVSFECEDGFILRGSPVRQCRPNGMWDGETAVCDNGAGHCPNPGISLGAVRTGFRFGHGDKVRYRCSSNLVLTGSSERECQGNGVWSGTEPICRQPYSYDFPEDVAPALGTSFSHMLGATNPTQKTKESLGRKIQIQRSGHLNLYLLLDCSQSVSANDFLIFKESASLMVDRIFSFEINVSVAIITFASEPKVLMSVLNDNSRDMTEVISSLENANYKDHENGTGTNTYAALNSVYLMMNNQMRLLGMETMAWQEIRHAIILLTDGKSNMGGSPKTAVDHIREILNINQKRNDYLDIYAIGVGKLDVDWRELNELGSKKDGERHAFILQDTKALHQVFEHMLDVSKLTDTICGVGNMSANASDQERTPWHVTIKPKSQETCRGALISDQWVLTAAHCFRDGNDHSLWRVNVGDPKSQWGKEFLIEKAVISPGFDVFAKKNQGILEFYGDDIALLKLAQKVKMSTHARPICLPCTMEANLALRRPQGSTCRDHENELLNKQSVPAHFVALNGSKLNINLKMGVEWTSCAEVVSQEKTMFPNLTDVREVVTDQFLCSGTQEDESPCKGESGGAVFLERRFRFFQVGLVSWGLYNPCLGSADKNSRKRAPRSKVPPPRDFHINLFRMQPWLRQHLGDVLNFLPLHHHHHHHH

Test [4] addresses T4, human C2 L620A (human, UniProt P06681 21-752).
T4 sequence: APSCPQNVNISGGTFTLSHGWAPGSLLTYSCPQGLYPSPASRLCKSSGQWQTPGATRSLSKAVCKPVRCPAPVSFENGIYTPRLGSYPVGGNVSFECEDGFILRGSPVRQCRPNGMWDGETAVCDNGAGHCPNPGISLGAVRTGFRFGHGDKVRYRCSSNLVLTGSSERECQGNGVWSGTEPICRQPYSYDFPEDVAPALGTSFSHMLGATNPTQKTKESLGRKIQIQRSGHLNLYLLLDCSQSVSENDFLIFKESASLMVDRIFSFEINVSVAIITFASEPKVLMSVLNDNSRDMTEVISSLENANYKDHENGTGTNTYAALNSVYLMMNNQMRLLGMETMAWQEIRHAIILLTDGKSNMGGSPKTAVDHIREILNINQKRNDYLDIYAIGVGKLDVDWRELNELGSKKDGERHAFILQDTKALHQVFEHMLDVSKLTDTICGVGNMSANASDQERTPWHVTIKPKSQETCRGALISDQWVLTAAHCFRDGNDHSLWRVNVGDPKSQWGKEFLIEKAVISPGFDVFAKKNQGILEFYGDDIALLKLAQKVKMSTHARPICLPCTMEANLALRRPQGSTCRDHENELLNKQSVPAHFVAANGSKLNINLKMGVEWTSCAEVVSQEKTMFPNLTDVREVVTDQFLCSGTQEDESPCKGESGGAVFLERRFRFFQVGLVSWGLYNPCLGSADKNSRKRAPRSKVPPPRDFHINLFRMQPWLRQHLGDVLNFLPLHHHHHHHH

Usually Kd stands for the free concentration of one partner at which half of the binding sites on the other are occupied at equilibrium, for simple one-to-one binding.

B1: RF16-214 (antibody, V domains shown)
VH: EVQLLESGGGLVQPGGSLRLSCAASGFTFSWYQMMWVRQAPGKGLEWVSRIYPSGGGTAYADSVKGRFTISRDNSKNTLYLQMNSLRAEDTAVYYCARDAGYGDNWGQGTLVTVSS
VL: QSALTQPPSVSVSPGQTASITCSGDKLGEKYASWYQQKAGQSPVMVIYQDRKRPSGIPERFSGSNSGNTATLTISGTQAMDEADYYCQAWDTRAVVFGGGTKLTVLG
Regarding B1, the Kd in test [1] worked out at 31.2 nM; in test [2], 36.5 nM; in test [3], 26.2 nM; in test [4], 30.8 nM.
